From the supplement of paper PMC10899765

Key:
Conditions in all cases: 20 nM; 72 h
[1] = system: MCF10A; assay: one-nucleolus phenotype percent effect (relative to siNT 0% and siNOL11 100%); higher = more cells with one nucleolus (ribosome biogenesis inhibition)
Procedure: (§1)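 After 72 h, cells were fixed and stained with Hoechst and anti-fibrillarin, and nucleoli per nucleus were counted with CellProfiler. Values are plate-adjusted percent effect for the one-nucleolus and 5+ nucleoli phenotypes, normalised to siNT (0%) and to the positive controls siNOL11 or siKIF11 (100%), as the mean of biological triplicates. Percent viability is the nuclei count relative to siNT.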

[2] = system: MCF10A; assay: percent viability (nuclei count relative to siNT); higher = more viable cells
Procedure: as §1

[3] = system: MCF10A; assay: 5+ nucleoli phenotype percent effect (relative to siNT 0% and siKIF11 100%); higher = more cells with five or more nucleoli
Procedure: as §1

| Sequence | one-nucleolus phenotype percent effect [1] | percent viability [2] | 5+ nucleoli phenotype percent effect [3] |
| --- | --- | --- | --- |
| GAAGGACACUGGUGUCAACGGCU [hsa-miR-8080] | -9.1% | 118% | 19.9% |
| GCGACCCAUACUUGGUUUCAG [hsa-miR-551b-3p] | -14.5% | 111% | 23.7% |
| GUGAACGGGCGCCAUCCCGAGG [hsa-miR-887] | -1.47% | 73.2% | -3.19% |
| AACGCACUUCCCUUUAGAGUGU [hsa-miR-521] | -9.21% | 57.9% | 28.6% |
| AAAAUGGUGCCCUAGUGACUACA [hsa-miR-224-3p] | 12.8% | 13.9% | -15% |
| CACUGUUUCCUUUCUGAGUGGA [hsa-miR-892c-3p] | 1.69% | 93.2% | -29.1% |
| AGAGCUCACAGCUGUCCUUCUCUA [hsa-miR-3670] | 17.6% | 25.7% | -9.38% |
| AGGGCCAGAGGAGCCUGGAGUGG [hsa-miR-4726-5p] | 5.63% | 50.1% | 18.8% |
| AGCGUGGGAUGUCCAUGAAGUCAG [hsa-miR-6853-5p] | -26.6% | 71.7% | 90.6% |
| CCUCCCAUGCCAAGAACUCCC [hsa-miR-2116-3p] | -24.7% | 95.6% | 58.4% |
| UCGACAGCACGACACUGCCUUC [hsa-miR-196b-3p] | 2.46% | 65.2% | 5.68% |
| GGUGGAUAUUCCUUCUAUGUU [hsa-miR-376c-5p] | 21.9% | 20.7% | -0.73% |
| ACCUGGCAUACAAUGUAGAUUU [hsa-miR-221-5p] | 62.6% | 36% | -26.8% |
| CUCACUGAUCAAUGAAUGCA [hsa-miR-181b-2-3p] | -19.1% | 144% | 9.62% |
| CACACAUAGCAGGUGUAUAUA [hsa-miR-4789-3p] | -24.6% | 67.3% | 39.4% |
| UUGCCAUGUCUAAGAAGAA [hsa-miR-4659b-5p] | 29.7% | 42% | -38.1% |
| UCUUUGGUUAUCUAGCUGUAUGA [hsa-miR-9-5p] | 20.5% | 54.9% | -15.1% |
| AGUGGGGAACCCUUCCAUGAGG [hsa-miR-491-5p] | 47.1% | 10.1% | -46.6% |
| UGUCUCUCGCCCUUGGCCUUAG [hsa-miR-6895-3p] | 34.7% | 19.4% | -32.5% |
| UGAGCUAAAUGUGUGCUGGGA [hsa-miR-610] | -14.8% | 131% | 20.7% |

| Sequence | one-nucleolus phenotype percent effect [1] | percent viability [2] | 5+ nucleoli phenotype percent effect [3] |
| --- | --- | --- | --- |
| GCGGAAGGCGGAGCGGCGGA [hsa-miR-6125] | -24.1% | 155% | 25.5% |
| UCUACAGUGCACGUGUCUCCAGU [hsa-miR-139-5p] | -8.78% | 67.5% | -2.1% |
| CGGGCAUGCUGGGAGAGACUUU [hsa-miR-6862-5p] | 31.7% | 21.6% | -13% |
| UGACCCCCAUGUCGCCUCUGUAG [hsa-miR-6859-3p] | 2.24% | 45% | -21.2% |
| UUUAAGCAGGAAAUAGAAUUUA [hsa-miR-4503] | -6.55% | 100% | -5.17% |
| AUCAGGGCUUGUGGAAUGGGAAG [hsa-miR-3127-5p] | 49.5% | 18.4% | -23.4% |
| AUAUGUAUAUGUGACUGCUACU [hsa-miR-3924] | -20% | 32% | -20.9% |
| AGGAUUUCAGAAAUACUGGUGU [hsa-miR-3167] | -14.6% | 49.1% | -10.4% |
| CUCCAGAGGGAUGCACUUUCU [hsa-miR-525-5p] | 20.6% | 36.5% | -22.1% |
| AGGCAGUGUAGUUAGCUGAUUGC [hsa-miR-34c-5p] | 38.8% | 13.2% | -6.79% |
| CAAGCCUCUCCUGCCCUUCCAG [hsa-miR-7109-3p] | -12.1% | 51.1% | 31.1% |
| UACACAAGAAAACCAAGGCUCA [hsa-miR-4801] | -13.4% | 82% | 20.3% |
| ACCGUGCAAAGGUAGCAUA [hsa-miR-1973] | 2.66% | 119% | -30.8% |
| UCUGGCCAGCUACGUCCCCA [hsa-miR-3190-5p] | -10.2% | 48.9% | 19.8% |
| AGGAAUGUUCCUUCUUUGCC [hsa-miR-613] | 36.5% | 44.4% | -37.9% |
| ACUGGAUUUGGAGCCAGAA [hsa-miR-378j] | -17.6% | 42.3% | -1.17% |
| UGAGGCCCUUGGGGCACAGUGG [hsa-miR-5008-5p] | 6.37% | 22.9% | -8.69% |
| CAAGUCACUAGUGGUUCCGUU [hsa-miR-224-5p] | 15.4% | 38.7% | -41% |
| UCACAGUGGUCUCUGGGAUUAU [hsa-miR-216a-3p] | 8.32% | 29.5% | -17.5% |
| AGGGGGUAGAAAGUGGCUGAAG [hsa-miR-6835-5p] | 11.4% | 14.9% | -24.3% |

| Sequence | one-nucleolus phenotype percent effect [1] | percent viability [2] | 5+ nucleoli phenotype percent effect [3] |
| --- | --- | --- | --- |
| AGGUUGUCCGUGGUGAGUUCGCA [hsa-miR-323b-5p] | -5.61% | 9.9% | 57.7% |
| AAGUCCUGCUUCUGUUGCAG [hsa-miR-6838-3p] | -6.74% | 56.4% | -28.6% |
| GAAAGUAAUUGCUGUUUUUGCC [hsa-miR-548aq-5p] | -13.4% | 118% | 16.5% |
| UUUGUUCGUUCGGCUCGCGUGA [hsa-miR-375] | 0.601% | 59.7% | 5.82% |
| UGGGCGAGGGCGGCUGAGCGGC [hsa-miR-6729-5p] | 6.3% | 29% | -3.58% |
| UGGGUUCCUGGCAUGCUGAUUU [hsa-miR-23b-5p] | 2.38% | 59.2% | 1.4% |
| CCUGCAGCGACUUGAUGGCUUCC [hsa-miR-1184] | 4.01% | 70.1% | -8.51% |
| AGGAAGCCCUGGAGGGGCUGGAG [hsa-miR-671-5p] | 58.7% | 45.3% | -27.7% |
| UCUCACACAGAAAUCGCACCCGU [hsa-miR-342-3p] | -2.78% | 78.4% | -4.22% |
| UCUGGUCCUGGACAGGAGGC [hsa-miR-7152-3p] | -12.8% | 41.9% | 18.5% |
| GGGGUAUUGUUUCCGCUGCCAGG [hsa-miR-503-3p] | 39% | 40.1% | -25.1% |
| GAUGCGCCGCCCACUGCCCCGCGC [hsa-miR-4787-3p] | -16.2% | 76.2% | 33.1% |
| UGGCCAAAAAGCAGGCAGAGA [hsa-miR-3926] | 11.5% | 31.6% | 0.491% |
| AACUCCAAACACUCAAAACUCA [hsa-miR-3145-5p] | -24.6% | 119% | 43.6% |
| CUUUGCUUCCUGCUCCCCUAG [hsa-miR-6885-3p] | -5.84% | 41.6% | -17.3% |
| UACGGUGAGCCUGUCAUUAUUC [hsa-miR-433-5p] | 4.21% | 32.9% | -4.1% |
| UCUGAAAGAGCAGUUGGUGUU [hsa-miR-4766-5p] | -18.9% | 56.2% | 2.75% |
| GGAGUGGGCUGGUGGUU [hsa-miR-4481] | 5.61% | 37.8% | 6.11% |
| UGGUGCGGAGAGGGCCCACAGUG [hsa-miR-675-5p] | 29.5% | 39% | -14% |
